Measured values: article PMC6252174 (Nature structural & molecular biology, 2018)

Target: the molecule itself
Test: cryo-EM structure

B1: Xenopus tropicalis TRPV4 crystallization and cryo-EM construct TRPV4_(cryst) (133–797 N647Q) (domain or fragment, UniProt A0A6I8RQZ3 133-797, looked up)
chain: APSPDPPPVIKMFNRHMLFDIVSRGSTAELEGFLPFLLAQKKRLTDEEFREASTGKTCLTKALMNLNGGKNDTIPMLIDIAEKTGNLREFINSPFRDVYYRGQTALHIAIERRCKHYVELLVEKGADVHAQARGRFFQPKDEGGYFYFGELPLSLAACTNQPDIVHYLTENAHKKADIRRQDSRGNTVLHALVAIADNTRENTKFVTKVYDLLVIKCVKLYPDSSLEAIFNNDSMSPLMMAAKLGKIGIFQHIIRLEIKDEEARHLSRKFRDWAYGPVYSSLYDLSMLDTCGEEVSVLEILVYNSKVENRHEMLAVEPINELLRDKWQKFGAVSFYISVVSYLIAMIIFTLIAYYRPMDGTPPYPYRTTMDYMRLAGEIVTLLTGVVFFITNIKDLFMKKCPGVNSLFIDGSFQLLYFIYSVLVIITAVLYLVGIESYLAVMVFALVLGWMNALYFTRGLKLTGTYSIMLQKILFKDLFRFLLVYLLFMIGYASALVSLLNPCTSQESCIETSSQCTVPEYPSCRDSSTFSKFLLDLFKLTIGMGDLEMINSAKYPAVFIILLVTYIILTFVLLLNMLIALMGETVGQVSKESKQIWKLQWATTILDIERSFPVCMRKAFRSGEMVTVGKNLDGTPDRRWCFRVDEVNWSHWNQNLGIINEDPGR
stoichiometry N: 4
